Measurements reported in patent US20100260668A1 (published 2010).

B1: DVD445 (bispecific antibody, human IgG1, kappa)
heavy: not shown
light: DIVMTQSPDSLAVSLGERATISCRASESVDNYGISFMKWFQQKPGQPPKLLIYAASNQGSGVPDRFSGSGSGTDFTLTISSLQAEDVAVYYCQQSKEVPWTFGGGTKVEIKRTVAAPDIQMTQSPSSLSASVGDRVTITCRASQVIRRSLAWYQQKPGKAPKLLIYAASNLASGVPSRFSGSGSGTDFTLTISSLQPEDFATYYCQQSNTSPLTFGQGTKVEIKRTVAAPSVFIFPPSDEQLKSGTASVVCLLNNFYPREAKVQWKVDNALQSGNSQESVTEQDSKDSTYSLSSTLTLSKADYEKHKVYACEVTHQGLSSPVTKSFNRGEC
notes: DVD-Ig; outer AB069 (DLL4), inner AB071 (VEGF); HC short, LC short linker; also called DVD445H; DVD445L
B2: DVD515 (bispecific antibody, human IgG1, kappa)
heavy: not shown
light: QAVVTQESALTTSPGETVTLTCRSSTGAVTTSNYANWVQEKPDHLFTGLIGGTNNRAPGVPARFSGSLIGDKAALTITGAQTEDEAIYFCALWYSNHWVFGGGTKLTVLGQPKAAPDIQMTQSPSSLSASVGDRVTITCRASQVIRRSLAWYQQKPGKAPKLLIYAASNLASGVPSRFSGSGSGTDFTLTISSLQPEDFATYYCQQSNTSPLTFGQGTKVEIKRTVAAPSVFIFPPSDEQLKSGTASVVCLLNNFYPREAKVQWKVDNALQSGNSQESVTEQDSKDSTYSLSSTLTLSKADYEKHKVYACEVTHQGLSSPVTKSFNRGEC
notes: DVD-Ig; outer AB073 (DLL4), inner AB071 (VEGF); HC short, LC short linker; also called DVD515H; DVD515L
B3: DVD491 (bispecific antibody, human IgG1, kappa)
heavy: not shown
light: DIQMTQSSSYLSVSLGGRVTITCKASDHINNWLAWYQQKPGNAPRLLISGATSLETGVPSRFSGSGSGKDYTLSITSLQTEDVATYYCQQYWSIPLTFGAGTKLELKRTVAAPDIQMTQSPSSLSASVGDRVTITCRASQVIRRSLAWYQQKPGKAPKLLIYAASNLASGVPSRFSGSGSGTDFTLTISSLQPEDFATYYCQQSNTSPLTFGQGTKVEIKRTVAAPSVFIFPPSDEQLKSGTASVVCLLNNFYPREAKVQWKVDNALQSGNSQESVTEQDSKDSTYSLSSTLTLSKADYEKHKVYACEVTHQGLSSPVTKSFNRGEC
notes: DVD-Ig; outer AB072 (DLL4), inner AB071 (VEGF); HC short, LC short linker; also called DVD491H; DVD491L
B4: DVD533 (bispecific antibody, human IgG1, kappa, lambda, L234A L235A)
heavy: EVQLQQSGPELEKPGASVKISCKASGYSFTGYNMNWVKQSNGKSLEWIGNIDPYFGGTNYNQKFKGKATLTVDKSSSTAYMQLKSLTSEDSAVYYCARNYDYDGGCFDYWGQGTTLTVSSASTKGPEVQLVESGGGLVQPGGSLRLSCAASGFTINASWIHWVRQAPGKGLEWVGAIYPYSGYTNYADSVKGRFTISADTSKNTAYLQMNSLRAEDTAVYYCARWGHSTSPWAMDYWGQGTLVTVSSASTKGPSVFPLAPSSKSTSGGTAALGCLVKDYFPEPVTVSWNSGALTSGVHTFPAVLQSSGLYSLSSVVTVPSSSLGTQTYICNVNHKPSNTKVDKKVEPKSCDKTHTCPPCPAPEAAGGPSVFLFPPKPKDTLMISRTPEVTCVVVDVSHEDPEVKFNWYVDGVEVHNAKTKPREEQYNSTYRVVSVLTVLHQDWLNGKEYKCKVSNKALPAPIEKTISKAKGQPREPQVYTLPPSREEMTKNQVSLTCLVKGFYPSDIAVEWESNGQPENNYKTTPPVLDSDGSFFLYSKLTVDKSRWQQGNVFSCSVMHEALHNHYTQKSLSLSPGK
light: QAVVTQESALTTSPGETVTLTCRSSTGAVTTSNYANWVQEKPDHLFTGLIGGTNNRAPGVPARFSGSLIGDKAALTITGAQTEDEAIYFCALWYSNHWVFGGGTKLTVLGQPKAAPSVTLFPPDIQMTQSPSSLSASVGDRVTITCRASQVIRRSLAWYQQKPGKAPKLLIYAASNLASGVPSRFSGSGSGTDFTLTISSLQPEDFATYYCQQSNTSPLTFGQGTKVEIKRTVAAPSVFIFPPSDEQLKSGTASVVCLLNNFYPREAKVQWKVDNALQSGNSQESVTEQDSKDSTYSLSSTLTLSKADYEKHKVYACEVTHQGLSSPVTKSFNRGEC
notes: DVD-Ig; outer AB073 (DLL4), inner AB071 (VEGF); HC short, LC long linker; also called DVD533H; DVD533L
B5: DVD509 (bispecific antibody, human IgG1, kappa)
heavy: not shown
light: DIQMTQSSSYLSVSLGGRVTITCKASDHINNWLAWYQQKPGNAPRLLISGATSLETGVPSRFSGSGSGKDYTLSITSLQTEDVATYYCQQYWSIPLTFGAGTKLELKRTVAAPSVFIFPPDIQMTQSPSSLSASVGDRVTITCRASQVIRRSLAWYQQKPGKAPKLLIYAASNLASGVPSRFSGSGSGTDFTLTISSLQPEDFATYYCQQSNTSPLTFGQGTKVEIKRTVAAPSVFIFPPSDEQLKSGTASVVCLLNNFYPREAKVQWKVDNALQSGNSQESVTEQDSKDSTYSLSSTLTLSKADYEKHKVYACEVTHQGLSSPVTKSFNRGEC
notes: DVD-Ig; outer AB072 (DLL4), inner AB071 (VEGF); HC short, LC long linker; also called DVD509H; DVD509L
B6: DVD485 (bispecific antibody, human IgG1, kappa)
heavy: not shown
light: DIQMTQSPSSLSASVGDRVTITCRASQDVSTAVAWYQQKPGKAPKLLIYSASFLYSGVPSRFSGSGSGTDFTLTISSLQPEDFATTYYCQQSYTGTVTFGQGTKVEIKRTVAAPSVFIFPPDIQMTQSPSSLSASVGDRVTITCRASQVIRRSLAWYQQKPGKAPKLLIYAASNLASGVPSRFSGSGSGTDFTLTISSLQPEDFATYYCQQSNTSPLTFGQGTKVEIKRTVAAPSVFIFPPSDEQLKSGTASVVCLLNNFYPREAKVQWKVDNALQSGNSQESVTEQDSKDSTYSLSSTLTLSKADYEKHKVYACEVTHQGLSSPVTKSFNRGEC
notes: DVD-Ig; outer AB015 (DLL4), inner AB071 (VEGF); HC short, LC long linker; also called DVD485H; DVD485L
B7: DVD463 (bispecific antibody, human IgG1, kappa)
heavy: not shown
light: DIVMTQSPDSLAVSLGERATISCRASESVDNYGISFMKWFQQKPGQPPKLLIYAASNQGSGVPDRFSGSGSGTDFTLTISSLQAEDVAVYYCQQSKEVPWTFGGGTKVEIKRTVAAPSVFIFPPDIQMTQSPSSLSASVGDRVTITCRASQVIRRSLAWYQQKPGKAPKLLIYAASNLASGVPSRFSGSGSGTDFTLTISSLQPEDFATYYCQQSNTSPLTFGQGTKVEIKRTVAAPSVFIFPPSDEQLKSGTASVVCLLNNFYPREAKVQWKVDNALQSGNSQESVTEQDSKDSTYSLSSTLTLSKADYEKHKVYACEVTHQGLSSPVTKSFNRGEC
notes: DVD-Ig; outer AB069 (DLL4), inner AB071 (VEGF); HC short, LC long linker; also called DVD463H; DVD463L
B8: DVD521 (bispecific antibody, human IgG1, kappa, lambda, L234A L235A)
heavy: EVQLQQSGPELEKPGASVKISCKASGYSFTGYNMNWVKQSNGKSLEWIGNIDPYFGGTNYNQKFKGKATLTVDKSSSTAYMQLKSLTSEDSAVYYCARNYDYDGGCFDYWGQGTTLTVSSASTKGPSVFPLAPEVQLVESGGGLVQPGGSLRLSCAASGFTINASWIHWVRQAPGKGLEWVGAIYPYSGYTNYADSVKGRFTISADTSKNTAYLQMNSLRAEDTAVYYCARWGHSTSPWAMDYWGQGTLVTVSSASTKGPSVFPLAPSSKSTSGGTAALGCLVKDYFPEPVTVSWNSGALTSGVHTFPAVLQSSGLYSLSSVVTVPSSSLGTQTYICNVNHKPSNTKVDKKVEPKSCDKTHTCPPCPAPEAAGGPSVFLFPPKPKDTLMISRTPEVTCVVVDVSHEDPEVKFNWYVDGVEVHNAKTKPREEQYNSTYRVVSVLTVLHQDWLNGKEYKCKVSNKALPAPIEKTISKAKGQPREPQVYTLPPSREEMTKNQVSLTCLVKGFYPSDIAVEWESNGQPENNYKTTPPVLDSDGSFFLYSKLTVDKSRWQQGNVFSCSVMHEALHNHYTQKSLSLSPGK
light: B4 light
notes: DVD-Ig; outer AB073 (DLL4), inner AB071 (VEGF); HC long, LC long linker; also called DVD521H; DVD521L
B9: DVD497 (bispecific antibody, human IgG1, kappa)
heavy: not shown
light: B5 light
notes: DVD-Ig; outer AB072 (DLL4), inner AB071 (VEGF); HC long, LC long linker; also called DVD497H; DVD497L
B10: DVD473 (bispecific antibody, human IgG1, kappa)
heavy: not shown
light: B6 light
notes: DVD-Ig; outer AB015 (DLL4), inner AB071 (VEGF); HC long, LC long linker; also called DVD473H; DVD473L
B11: DVD451 (bispecific antibody, human IgG1, kappa, L234A L235A)
heavy: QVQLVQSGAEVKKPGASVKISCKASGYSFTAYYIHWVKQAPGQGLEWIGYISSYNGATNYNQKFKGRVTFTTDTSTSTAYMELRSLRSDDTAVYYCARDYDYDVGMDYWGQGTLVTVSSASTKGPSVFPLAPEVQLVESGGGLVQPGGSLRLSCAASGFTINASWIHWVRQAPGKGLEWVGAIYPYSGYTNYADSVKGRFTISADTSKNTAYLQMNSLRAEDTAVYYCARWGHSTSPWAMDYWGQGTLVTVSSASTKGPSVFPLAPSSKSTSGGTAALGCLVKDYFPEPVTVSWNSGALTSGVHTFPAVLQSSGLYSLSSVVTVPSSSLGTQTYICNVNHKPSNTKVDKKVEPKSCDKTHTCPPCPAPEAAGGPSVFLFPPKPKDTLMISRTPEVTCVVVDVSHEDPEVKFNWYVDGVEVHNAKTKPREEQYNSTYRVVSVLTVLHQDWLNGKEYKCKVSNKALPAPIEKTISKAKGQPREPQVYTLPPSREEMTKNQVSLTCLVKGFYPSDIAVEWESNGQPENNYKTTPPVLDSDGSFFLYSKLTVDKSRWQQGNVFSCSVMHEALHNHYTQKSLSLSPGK
light: B7 light
notes: DVD-Ig; outer AB069 (DLL4), inner AB071 (VEGF); HC long, LC long linker; also called DVD451H; DVD451L
B12: DVD457 (bispecific antibody, human IgG1, kappa, L234A L235A)
heavy: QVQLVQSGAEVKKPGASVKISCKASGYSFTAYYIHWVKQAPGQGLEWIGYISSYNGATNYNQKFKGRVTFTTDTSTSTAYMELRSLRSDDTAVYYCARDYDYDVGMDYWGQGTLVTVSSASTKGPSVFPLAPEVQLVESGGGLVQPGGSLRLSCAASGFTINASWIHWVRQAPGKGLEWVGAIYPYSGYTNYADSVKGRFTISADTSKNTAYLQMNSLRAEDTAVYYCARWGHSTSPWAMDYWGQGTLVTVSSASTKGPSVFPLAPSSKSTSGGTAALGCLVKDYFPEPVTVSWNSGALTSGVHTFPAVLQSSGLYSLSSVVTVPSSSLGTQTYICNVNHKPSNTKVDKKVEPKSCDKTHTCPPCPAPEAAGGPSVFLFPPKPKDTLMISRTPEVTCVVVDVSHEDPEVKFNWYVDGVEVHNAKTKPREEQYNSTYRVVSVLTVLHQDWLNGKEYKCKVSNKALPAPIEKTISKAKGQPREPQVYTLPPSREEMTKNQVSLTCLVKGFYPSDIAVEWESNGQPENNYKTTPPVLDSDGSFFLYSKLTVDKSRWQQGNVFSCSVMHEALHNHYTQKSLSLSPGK
light: B1 light
notes: DVD-Ig; outer AB069 (DLL4), inner AB071 (VEGF); HC long, LC short linker; also called DVD457H; DVD457L
B13: DVD479 (bispecific antibody, human IgG1, kappa)
heavy: not shown
light: DIQMTQSPSSLSASVGDRVTITCRASQDVSTAVAWYQQKPGKAPKLLIYSASFLYSGVPSRFSGSGSGTDFTLTISSLQPEDFATTYYCQQSYTGTVTFGQGTKVEIKRTVAAPDIQMTQSPSSLSASVGDRVTITCRASQVIRRSLAWYQQKPGKAPKLLIYAASNLASGVPSRFSGSGSGTDFTLTISSLQPEDFATYYCQQSNTSPLTFGQGTKVEIKRTVAAPSVFIFPPSDEQLKSGTASVVCLLNNFYPREAKVQWKVDNALQSGNSQESVTEQDSKDSTYSLSSTLTLSKADYEKHKVYACEVTHQGLSSPVTKSFNRGEC
notes: DVD-Ig; outer AB015 (DLL4), inner AB071 (VEGF); HC long, LC short linker; also called DVD479H; DVD479L
B14: DVD527 (bispecific antibody, human IgG1, kappa)
heavy: not shown
light: B2 light
notes: DVD-Ig; outer AB073 (DLL4), inner AB071 (VEGF); HC long, LC short linker; also called DVD527H; DVD527L
B15: DVD503 (bispecific antibody, human IgG1, kappa)
heavy: not shown
light: B3 light
notes: DVD-Ig; outer AB072 (DLL4), inner AB071 (VEGF); HC long, LC short linker; also called DVD503H; DVD503L

What follows are binders tested against T1, DLL4 ECD/His tag (R&D 1506-D4-050) (UniProt Q9NR61 27-529) (assay: direct bind ELISA, DLL4 on plate; DLL4 VD N-term.; HC Short, LC Short).
T1 construct: extracellular domain; Bought antigen coated on the ELISA plate; not shown: His tag

| Binder | EC50 [nM] |
| --- | --- |
| B1 | 0.17 |
| B2 | 0.2 |
| B3 | 0.39 |

What follows are binders tested against T1, DLL4 ECD/His tag (R&D 1506-D4-050) (assay: direct bind ELISA, DLL4 on plate; DLL4 VD N-term.; HC Short, LC Long).
Experimental: (§1) Enzyme Linked Immunosorbent Assays to screen for antibodies that bind a desired target antigen were performed as follows. […] Plates were washed four times with PBS containing 0.02% Tween 20. Plates were blocked by the addition of 300 μL/well blocking solution (non-fat dry milk powder, various retail suppliers, diluted to 2% in PBS) for ½ hour at room temperature. Plates were washed four times after blocking with PBS containing 0.02% Tween 20.
(§2) Alternatively, one hundred microliters per well of 10 μg/ml of Histidine (His) tagged desired target antigen (R&D Systems, Minneapolis, Minn.) was added to ELISA plates coated with monoclonal mouse anti-polyHistidine antibody as described above and incubated for 1 hour at room temperature. Wells were washed four times with PBS containing 0.02% Tween 20.
(§3) One hundred microliters of antibody or DVD-Ig preparations diluted in blocking solution as described above was added to the desired target antigen plate or desired target antigen/FC fusion plate or the anti-polyHistidine antibody/His tagged desired target antigen plate prepared as described above and incubated for 1 hour at room temperature. Wells are washed four times with PBS containing 0.02% Tween 20.

| Binder | EC50 [nM] |
| --- | --- |
| B4 | 0.25 |
| B5 | 0.21 |
| B6 | 1.41 |
| B7 | 0.5 |

Each binder was assayed against T1, DLL4 ECD/His tag (R&D 1506-D4-050) (assay: direct bind ELISA, DLL4 on plate; DLL4 VD N-term.; HC Long, LC Long).
Experimental: as §1, §2, §3

| Binder | EC50 [nM] |
| --- | --- |
| B8 | 0.26 |
| B9 | 0.53 |
| B10 | 1.8 |
| B11 | 0.4 |

The binders below were run against T1, DLL4 ECD/His tag (R&D 1506-D4-050) (assay: direct bind ELISA, DLL4 on plate; DLL4 VD N-term.; HC Long, LC Short).
Experimental: as §1, §2, §3

| Binder | EC50 [nM] |
| --- | --- |
| B12 | 0.13 |
| B13 | 1.69 |
| B14 | 0.2 |
| B15 | 0.33 |
